Legend:
Experiment in all cases: cell_activity
[1] = system: TlpA (Salmonella typhimurium); settings: thermal derepression of GFP in E. coli, 31.4 to 44.6 C
[2] = system: TlpA36 (Salmonella typhimurium); settings: thermal derepression of GFP in E. coli, 31.4 to 44.6 C
[3] = system: TlpA39 (Salmonella typhimurium); settings: thermal derepression of GFP in E. coli, 31.4 to 44.6 C
[4] = target: TcI (cI857, A67T) (bacteriophage lambda) (UniProt P03034); settings: thermal derepression of GFP in E. coli, 34.2 to 40 C; text gives >1,432
[5] = target: TcI38 (bacteriophage lambda) (UniProt P03034); settings: thermal derepression of GFP in E. coli, 32.4 to 40 C
[6] = target: TcI42 (bacteriophage lambda) (UniProt P03034); settings: thermal derepression of GFP in E. coli, 32.4 to 45.7 C

Row | Substance | activity [1] [fold] | activity [2] [fold] | activity [3] [fold] | activity [4] [fold] | activity [5] [fold] | activity [6] [fold]
1 | TlpA operator/promoter, 52 bp | 355 | 370 | 1520 |  |  | 
2 | tandem pR/pL operator/promoter |  |  |  | 1430 | 1030 | 1690

From patent publication US20210277453
